Source: patent US20120039915A1 (University of California, published 2012)

T1: CD133 (human, UniProt O43490 20-865)
T1 construct: whole, on cells; also called CD133 molecule
T1 sequence (looked up): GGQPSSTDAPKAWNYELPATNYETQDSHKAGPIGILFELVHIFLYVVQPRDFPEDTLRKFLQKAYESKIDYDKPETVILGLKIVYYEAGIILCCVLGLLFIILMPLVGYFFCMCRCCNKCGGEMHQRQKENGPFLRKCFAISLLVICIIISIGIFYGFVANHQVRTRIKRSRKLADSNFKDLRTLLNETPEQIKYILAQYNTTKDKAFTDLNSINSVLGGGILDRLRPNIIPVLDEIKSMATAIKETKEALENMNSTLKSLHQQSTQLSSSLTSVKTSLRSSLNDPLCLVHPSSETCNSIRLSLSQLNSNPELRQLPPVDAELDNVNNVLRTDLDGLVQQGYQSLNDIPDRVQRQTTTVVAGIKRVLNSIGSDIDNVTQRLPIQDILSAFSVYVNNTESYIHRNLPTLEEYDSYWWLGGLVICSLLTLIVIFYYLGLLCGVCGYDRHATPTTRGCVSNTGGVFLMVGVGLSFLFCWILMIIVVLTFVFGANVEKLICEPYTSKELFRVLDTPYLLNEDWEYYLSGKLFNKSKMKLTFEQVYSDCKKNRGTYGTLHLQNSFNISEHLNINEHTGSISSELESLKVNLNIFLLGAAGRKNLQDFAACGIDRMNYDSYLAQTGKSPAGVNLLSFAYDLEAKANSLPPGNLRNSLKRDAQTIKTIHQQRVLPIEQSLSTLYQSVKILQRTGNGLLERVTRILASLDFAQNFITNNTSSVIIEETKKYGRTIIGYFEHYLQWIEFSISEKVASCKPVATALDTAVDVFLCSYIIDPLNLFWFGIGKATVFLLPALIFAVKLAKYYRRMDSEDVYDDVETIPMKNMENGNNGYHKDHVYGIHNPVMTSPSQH


Experiments:
CD133 [1] = target: T1, CD133; assay: FACS, phage on Caco-2 cells
Description: FIG. 3 depicts the results of co-expression of the CD133 epitope and phage-bound antigens. FIG. 3A depicts FITC-labeled phage antibodies and biotin-labeled anti-CD133 mAb were studied on GBM sphere cells. A typical result from studies on GBMx-1 sphere cells is shown. Percentage of total cells is indicated for each quadrant. […] PE-conjugated control mouse IgG and anti-CD133 mAb were incubated with Caoa-2 cells and binding detected by FACS. […] Four tumor sphere cell-targeting phage (GB1, GB8, GH9 and GC4) were tested. Negative control: a non-binding phage. Positive control: a Caco-2 binding phage preparation. FIG. 3D depicts the results of antibody immunoprecipitation of Caco-2 lysates. Lane 1: immunoprecipitation with anti-CD133 mAb. Lane 2: immunoprecipitation with the GC4 antibody. All immunoprecipitation products were analyzed on a SDS-PAGE gel followed by Western blot with anti-CD133 antibody and horseradish peroxidase-conjugated anti-mouse secondary antibody. Arrow indicates CD133. Molecular weights (kd) are indicated.
Phage antibody binding to antigens other than CD133: Caco-2 cells that express high levels of CD133 were incubated with phage antibodies along with the positive control PE-conjugated anti-CD133 antibody at 4° C. for 1 h, washed twice with PBS, and bound phage detected by biotin-labeled anti-fd antibody followed by streptavidin-R-PE, and analyzed by FACS. For immunoprecipitation studies, 10⁵ Caco-2 cells were lysed in 1% NP40, 0.15 M NaCl, and 0.01 M sodium phosphate, pH 7.2, on ice for 2 h. Lysates were precleared and incubated with 50 μg/ml scFvs bearing a hexahistidine tag at 4° C. for 1 h, and captured onto Ni-NTA+ beads (Qiagen). […] All immunoprecipitation products were analyzed by 4-20% gradient SDS-PAGE, followed by Western blot with mouse anti-CD133 followed by horseradish peroxidase-conjugated goat anti-mouse antibody (Jackson ImmunoResearch) using ECL Plus™ (GE Healthcare).

CD133 [2] = target: T1, CD133; assay: FACS, biotin-labelled GC4 scFv on Caco2 cells (CD133-high by paragraph 182); '-' means lack of significant binding
Description: For Table 1-6, biotin-labeled GC4 scFvs were tested for binding to a panel of human cell lines (all were tumor lines, except for BPH-1) by FACS. “+” indicates binding and “-” indicated lack of significant binding. Du-145 cells were derived from brain metastasis of prostate tumor.

[3] = target: T2, antigen bound by the GC4 antibody on GBM tumor sphere cells (target antigen not determined); assay: FACS on GBM tumor sphere cells at RT, MFI fitted (apparent dissociation constant)
T2 construct: also called GBM tumor spheres; GBM sphere cells
Description: FIG. 7A depicts the production of recombinant GC4 IgG. H: heavy chain. L: light chain. MW: molecular weight. […] Ctr: a non-binding human IgG1. […] FACS analysis was performed to determine binding of GC4 IgG1 (1 μg/ml) in the presence of the parental GC4 or four other scFvs (50 μg/ml each). Binding was detected by fluorescently labeled anti-human IgG antibody. Normalized mean fluorescence intensities were used to compare binding results. Error bars indicate standard deviations of duplicated experiments. *, P<0.05. […] MFI values were fitted using GraphPad. FIG. 7E depicts the binding constant of GC4 scFv to GBM tumor spheres. […] MFI values were fitted using GraphPad.
Affinity measurement: Varying concentrations of GC4 IgG1s were incubated with 10⁵ GBM cells at RT for 1 h in PBS containing 0.25% BSA. Bound IgG1s were detected by PE-conjugated goat anti-human antibody (Jackson ImmunoResearch) following incubation at RT for 30 min. Apparent dissociation constant was determined by FACS with mean fluorescence intensity (MFI) data fitted using GraphPad Prism (GraphPad Software). The apparent dissociation constant of GC4 scFv was measured similarly except that bound scFvs were detected by mouse anti-hexahistidine antibody (AbD Serotec/MorphoSys) followed by PE-conjugated goat anti-mouse antibody (Jackson ImmunoResearch).

Binder | binding result (CD133 [1]) | binding result (CD133 [2]) | Kd [3] [nM]
GB1 scFv (scFv, On fd phage in the Caco-2 FACS; His-tagged soluble scFv in the immunoprecipitation; also called GB1 phage antibody; not shown: lette) scFv: QVQLVQSGGGLVKPGGSLRLSCAASGFTFSNAWMNWVRQAPGKGLEWVGRIKSKTDGGTTDYAAPVNGRFTISRDDSKNTLYLQMNSLKTEDTAVYSCTTENWGSVNWGQGTLVTVSSGGGGSGGGGSGGGGSNFMLTQPPSVSVAPGKTASLTCGYNIGTKSVHWYQQKPGQAPVVVVHDDSDRPSGIPERFSGSNSGTTATLTISRVEAGDEADYYCQAWDSISEEVVFGGGTKLTV | no binding |  | 
GB8 scFv (scFv, His-tagged soluble scFv in the immunoprecipitation; also called GB8 phage antibody; not shown: lette) scFv: QVQLVESGGGLVQPGGSLRLSCAASGFTFSNYALTWVRQAPGKGLEWVSAISGSGGSTYYADSVKGRFTISRDTSKNTLYLQMNSLRAEDTAVYYCARGGYSYGPPFDYWGQGTLVTVSSGGGGSGGGGSGGGGSSELTQDPAVSVALGQTVRITCQGDSLRSYYASWYQQKPGQAPVLVIYGKNKRPSGIPDRFSGSSSGNTASLTITGAQAVDEADYHCNSRDSSGNHVVFGGGTKLTV | no binding |  | 
GH9 scFv (scFv, On fd phage in FACS; His-tagged soluble scFv in the immunoprecipitation; also called GH9 phage antibody; not shown: lette) scFv: QVQLQESGGGLVKPGGSLRLSCAASGFTFSSYSMNWVRQAPGQGLEWVSSISSRNSDIYYADSVRGRFTISRDNAKNSLYLQMNSLRAEDTAVYYCARDSSGYSSSPSDYWGQGTLVTVSSGGGGSGGGGSGGGGSNFMLTQPPSVSVAPGKTASLTCGGYNIGTKSVHWYQQKPGQAPVVVVHDDSDRPSGIPERFSGSNSGTTATLTISRVEAGDEADYYCQAWDSISEEVVFGGGTKLTV | no binding |  | 
GC4 scFv (scFv, Human scFv from a naive fd phage library; also called GC4 phage antibody; parental GC4 scFv; not shown: lette) scFv: QVQLVESGGGLVQPGGSLRLSCAASGFTFGTYDMSWVRQAPGKGLEWVSGISGSGGSTYYADSVKGRFTISRDNSKNTVYLQMNSLRVEDTAVYYCARGGWYSDNWGQGTLVTVSSGGGGSGGGGSGGGGSSELTQDPAVSVALGQTVRITCQGGSLRSYYASWYQQKPGQAPLLVIYGENNRPSGIPDRFSGSSSGNTASLTITGAQAEDEADYYCHSRDSSGNHVVFGGGTKLTV |  | no binding | 222
